This test concerns the target human CSF tau (human) (UniProt P10636). The experiment in a line: IP of tau from human CSF on antibody beads; recovery assessed by N-terminus tau ELISA (HJ8.5 capture, HJ8.7-biotin detection); value is the average over Tau12, HJ8.5 and HJ8.7. (ELISA stands for enzyme-linked immunosorbent assay.)
Sequence of UniProt P10636 (P10636 2-758 limits assumed): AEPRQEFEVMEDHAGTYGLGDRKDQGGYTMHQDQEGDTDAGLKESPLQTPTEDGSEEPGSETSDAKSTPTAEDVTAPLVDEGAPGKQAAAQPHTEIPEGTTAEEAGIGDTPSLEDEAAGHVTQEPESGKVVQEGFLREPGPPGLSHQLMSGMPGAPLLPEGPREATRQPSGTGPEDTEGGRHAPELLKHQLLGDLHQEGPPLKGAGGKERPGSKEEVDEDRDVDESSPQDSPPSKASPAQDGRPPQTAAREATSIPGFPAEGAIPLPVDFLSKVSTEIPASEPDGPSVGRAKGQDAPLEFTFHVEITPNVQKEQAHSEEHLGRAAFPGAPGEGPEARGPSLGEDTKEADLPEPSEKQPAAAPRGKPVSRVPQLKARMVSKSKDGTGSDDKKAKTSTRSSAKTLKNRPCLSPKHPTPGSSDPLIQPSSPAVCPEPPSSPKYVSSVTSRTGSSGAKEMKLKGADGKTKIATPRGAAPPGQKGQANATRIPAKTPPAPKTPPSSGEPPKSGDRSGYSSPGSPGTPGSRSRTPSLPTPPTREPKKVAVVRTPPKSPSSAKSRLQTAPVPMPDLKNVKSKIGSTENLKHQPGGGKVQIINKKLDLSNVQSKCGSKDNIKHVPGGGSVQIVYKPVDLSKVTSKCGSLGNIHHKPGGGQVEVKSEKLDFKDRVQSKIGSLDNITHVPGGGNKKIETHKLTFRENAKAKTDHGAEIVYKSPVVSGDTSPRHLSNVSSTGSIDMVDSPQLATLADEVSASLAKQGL

Take HJ8.7 (antibody): the immunoprecipitation efficiency is 99.3%.

Turning to Tau12 (antibody), the immunoprecipitation efficiency was found to be 99.3%.

(Values after US20210096139A1.)
